T1: OGT-TPR not fused to SUMO (aa 2-474 of ncOGT, SUMO tag removed) (human, UniProt O15294-1 2-474)
T1 sequence (looked up): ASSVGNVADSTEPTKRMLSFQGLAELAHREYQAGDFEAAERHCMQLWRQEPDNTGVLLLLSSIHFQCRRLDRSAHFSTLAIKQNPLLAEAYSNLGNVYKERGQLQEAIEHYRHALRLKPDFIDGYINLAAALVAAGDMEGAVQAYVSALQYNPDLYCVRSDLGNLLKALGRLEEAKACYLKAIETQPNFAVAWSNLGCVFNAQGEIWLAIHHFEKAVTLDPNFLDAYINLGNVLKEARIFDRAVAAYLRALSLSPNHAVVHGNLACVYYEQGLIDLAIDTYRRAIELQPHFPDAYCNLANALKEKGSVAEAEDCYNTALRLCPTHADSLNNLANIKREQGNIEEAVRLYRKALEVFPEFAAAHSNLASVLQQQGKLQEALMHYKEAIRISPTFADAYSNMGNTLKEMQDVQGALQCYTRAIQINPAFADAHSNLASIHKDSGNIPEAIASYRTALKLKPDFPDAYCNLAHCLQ

B1: SUMO-fused TPR region of OGT (OGT-TPR, aa 2-474 of ncOGT) (domain or fragment, human, UniProt O15294-1 2-474, looked up)
chain: T1 sequence (looked up)
B2: WT FUS LCRN (Fused in sarcoma N-terminal low-complexity region, aa 1-214) (domain or fragment, human, UniProt P35637 1-214, looked up)
chain: MASNDYTQQATQSYGAYPTQPGQGYSQQSSQPYGQQSYSGYSQSTDTSGYGQSSYSSYGQSQNTGYGTQSTPQGYGSTGGYGSSQSSQSSYGQQSSYPGYGQQPAPSSTSGSYGSSSQSSSYGQPQSGSYSQQPSYGGQQQSYGQQQSYNPPQGYGQQNQYNSSSGGGGGGGGGGNYGQDQSSMSSGGGSGGGYGNQDQSGGGGSGGYGQQDRG

Key:
[1] = target: B2; assay: NMR titration
[2] = target: T1, OGT-TPR not fused to SUMO (aa 2-474 of …); assay: NMR titration

average peak intensity ratio (plus OGT-TPR/apo) [1]	binding result [2]	Binder
0.48		B1
	binds	B2

Source: publication doi:10.1101/2022.09.12.507593 (bioRxiv, 2022)
